Measurements from PMC10573625, “Interaction of VvDELLA2 and VvCEB1 Mediates Expression of Expansion-Related Gene during GA-Induced Enlargement of Grape Fruit”.
Substitutions are numbered along the chain they refer to.

B1: PVvEXPA8-biotin (dsDNA)
DNA 1: TGGTAGTCTAACTTGAACAAAACATATGCATGTGCAG
DNA 2: CTGCACATGCATATGTTTTGTTCAAGTTAGACTACCA
B2: PVvEXPA8 (unlabelled competitor) (dsDNA)
DNA 1: TTGGTAGTCTAACTTGAACAAAACATATGCATGTGCAG
DNA 2: B1 DNA 2
B3: PVvEXPA8-mut (dsDNA)
DNA 1: B1 DNA 1 with G32T, G34T
DNA 2: B1 DNA 2 with C4A, C6A
B4: PVvEXPA11-biotin (dsDNA)
DNA 1: CTACTTGCAGAGATCACATGTGAGGCTGTTGCATT
DNA 2: AATGCAACAGCCTCACATGTGATCTCTGCAAGTAG
B5: PVvEXPA11-mut (dsDNA)
DNA 1: B4 DNA 1 with G20T, G22T
DNA 2: B4 DNA 2 with C14A, C16A
B6: PVvEXPA11 (unlabelled competitor) (dsDNA)
DNA 1: B4 DNA 1
DNA 2: B4 DNA 2

How the values were obtained:
VvCEB1 [1] = molecular target: T1, VvCEB1 (UniProt I6QS36 1-270); experiment: EMSA; Binding buffer, salt, pH and temperature not stated; Beyotime chemiluminescent biotin-labelled nucleic acid detection kit; probes annealed at 72 C for 30 min; conditions: protein: recombinant; tags: His (pET-30a(+)); chain copies: 2; label: 5'-biotin; blunt
T1 sequence: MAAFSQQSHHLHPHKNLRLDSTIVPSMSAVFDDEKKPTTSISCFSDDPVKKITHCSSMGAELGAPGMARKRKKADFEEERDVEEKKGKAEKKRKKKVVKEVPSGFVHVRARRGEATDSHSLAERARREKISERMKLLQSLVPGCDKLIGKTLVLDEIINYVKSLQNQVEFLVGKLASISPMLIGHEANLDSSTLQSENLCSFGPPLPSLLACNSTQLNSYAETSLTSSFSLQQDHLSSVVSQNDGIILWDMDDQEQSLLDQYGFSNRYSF

VvCEB1 [2] = molecular target: T1, VvCEB1; experiment: competition; unlabelled competitor against biotin probe N1; band significantly weakened; Binding buffer, salt, pH and temperature not stated; Beyotime chemiluminescent biotin-labelled nucleic acid detection kit; probes annealed at 72 C for 30 min; conditions: protein: recombinant; tags: His (pET-30a(+)); chain copies: 2; 5' overhang 1 nt as printed
VvCEB1 [3] = molecular target: T1, VvCEB1; experiment: EMSA; band disappeared completely with mutated probe; Binding buffer, salt, pH and temperature not stated; Beyotime chemiluminescent biotin-labelled nucleic acid detection kit; probes annealed at 72 C for 30 min; conditions: protein: recombinant; tags: His (pET-30a(+)); chain copies: 2; blunt
VvCEB1 [4] = molecular target: T1, VvCEB1; experiment: competition; unlabelled competitor against biotin probe N4; band significantly weakened; Binding buffer, salt, pH and temperature not stated; Beyotime chemiluminescent biotin-labelled nucleic acid detection kit; probes annealed at 72 C for 30 min; conditions: protein: recombinant; tags: His (pET-30a(+)); chain copies: 2; blunt

| Binder | binding result (VvCEB1 [1]) | binding result (VvCEB1 [3]) | also measured |
| --- | --- | --- | --- |
| B1 | binds |  |  |
| B2 |  |  | binding result (VvCEB1 [2]): binds |
| B3 |  | no binding |  |
| B4 | binds |  |  |
| B5 |  | no binding |  |
| B6 |  |  | binding result (VvCEB1 [4]): binds |
